Test results as given in IntAct's records for PubMed 16083881.

B1: Serine/threonine-protein phosphatase 5 (Mus musculus), Q60676 (parent)
chain: MAMAEGERTECAETPRDEPPADGTLKRAEELKTQANDYFKAKDYENAIKFYSQAIELNPGNAIYYGNRSLAYLRTECYGYALGDATRAIELDKKYIKGYYRRAASNMALGKFRAALRDYETVVKVKPNDKDAKMKYQECSKIVKQKAFERAIAGDEHRRSVVDSLDIESMTIEDEYSGPKLEDGKVTITFMKDLMQWYKDQKKLHRKCAYQILVQVKEVLCKLSTLVETTLKETEKITVCGDTHGQFYDLLNIFELNGLPSETNPYIFNGDFVDRGSFSVEVILTLFGFKLLYPDHFHLLRGNHETDNMNQIYGFEGEVKAKYTAQMYELFSEVFEWLPLAQCINGKVLIMHGGLFSEDGVTLDDIRKIERNRQPPDSGPMCDLLWSDPQPQNGRSVSKRGVSCQFGPDVTKAFLEENQLDYIIRSHEVKAEGYEVAHGGRCVTVFSAPNYCDQMGNKASYIHLQGSDLRPQFHQFTAVPHPNVKPMAYANTLLQLGMM
partner: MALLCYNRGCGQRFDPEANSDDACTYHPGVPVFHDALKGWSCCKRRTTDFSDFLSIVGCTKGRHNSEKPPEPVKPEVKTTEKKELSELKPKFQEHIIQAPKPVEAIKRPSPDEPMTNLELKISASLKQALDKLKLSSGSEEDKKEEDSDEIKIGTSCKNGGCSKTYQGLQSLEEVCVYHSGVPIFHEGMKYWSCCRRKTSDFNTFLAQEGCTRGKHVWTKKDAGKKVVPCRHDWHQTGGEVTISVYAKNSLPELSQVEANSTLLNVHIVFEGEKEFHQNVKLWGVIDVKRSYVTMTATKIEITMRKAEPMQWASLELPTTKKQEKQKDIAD

Variants of: B1
Details: with chrd1_mouse Chordc1, Q9D1P4

effect of a mutation on the interaction | Variant
disrupting interaction | MAMAEGERTECAETPRDEPPADGTLKRAEELATQANDYFKAKDYENAIKFYSQAIELNPGNAIYYGNRSLAYLRTECYGYALGDATRAIELDKKYIKGYYRRAASNMALGKFRAALRDYETVVKVKPNDKDAKMKYQECSKIVKQKAFERAIAGDEHRRSVVDSLDIESMTIEDEYSGPKLEDGKVTITFMKDLMQWYKDQKKLHRKCAYQILVQVKEVLCKLSTLVETTLKETEKITVCGDTHGQFYDLLNIFELNGLPSETNPYIFNGDFVDRGSFSVEVILTLFGFKLLYPDHFHLLRGNHETDNMNQIYGFEGEVKAKYTAQMYELFSEVFEWLPLAQCINGKVLIMHGGLFSEDGVTLDDIRKIERNRQPPDSGPMCDLLWSDPQPQNGRSVSKRGVSCQFGPDVTKAFLEENQLDYIIRSHEVKAEGYEVAHGGRCVTVFSAPNYCDQMGNKASYIHLQGSDLRPQFHQFTAVPHPNVKPMAYANTLLQLGMM [K32A]

Variants of: B1
Details: with chrd1_mouse Chordc1, Q9D1P4
Remark: another data set of the same source

effect of a mutation on the interaction | Variant
disrupting interaction | MAMAEGERTECAETPRDEPPADGTLKRAEELKTQANDYFKAKDYENAIKFYSQAIELNPGNAIYYGNRSLAYLRTECYGYALGDATRAIELDKKYIKGYYARAASNMALGKFRAALRDYETVVKVKPNDKDAKMKYQECSKIVKQKAFERAIAGDEHRRSVVDSLDIESMTIEDEYSGPKLEDGKVTITFMKDLMQWYKDQKKLHRKCAYQILVQVKEVLCKLSTLVETTLKETEKITVCGDTHGQFYDLLNIFELNGLPSETNPYIFNGDFVDRGSFSVEVILTLFGFKLLYPDHFHLLRGNHETDNMNQIYGFEGEVKAKYTAQMYELFSEVFEWLPLAQCINGKVLIMHGGLFSEDGVTLDDIRKIERNRQPPDSGPMCDLLWSDPQPQNGRSVSKRGVSCQFGPDVTKAFLEENQLDYIIRSHEVKAEGYEVAHGGRCVTVFSAPNYCDQMGNKASYIHLQGSDLRPQFHQFTAVPHPNVKPMAYANTLLQLGMM [R101A]
